Reference: publication PMC7658014

Target: T1, His6-OpaR (Vibrio parahaemolyticus (VP93?)) (UniProt Q79YV4)
T1 sequence: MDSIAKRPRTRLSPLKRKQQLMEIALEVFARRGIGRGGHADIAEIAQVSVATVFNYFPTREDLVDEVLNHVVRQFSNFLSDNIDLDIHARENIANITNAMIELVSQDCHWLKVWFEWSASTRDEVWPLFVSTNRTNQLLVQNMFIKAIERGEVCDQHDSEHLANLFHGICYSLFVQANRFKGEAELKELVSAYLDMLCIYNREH
Test: EMSA
Settings: EMSA: 0.4 ng probe, 20 uL of 100 mM HEPES pH 7.6, 5 mM EDTA, 50 mM (NH4)2SO4, 5 mM DTT, 1% Tween 20, 150 mM KCl, 25 C, 30 min; footprinting: 75 ng probe, DIG …

GCGCCAAAATGGCATAGAAAGGTGAAGAATAGCATTACATTGAAAAATAACAAAAGGGCAGTGCGTGATCGCACTGCCCTTTTAATAATCAGATTGATAGTAAGATTAACTCTTCGAGCTTTATCACCAAGAGTGATGAATCAATCG (double strand) [degS P1]
binding: binds

GGTTTATCCTATAAATTGCGGATATTTTAAGAAATTAATATTCATTAAATTGATAACTGGCGACGGATCTTTATGATGACGGTTGATATGCCGATAGAGCACTCATTAGCCAGT (double strand) [lytM P1]
binding: binds
